The results in this text go back to PMC9772109.

In the assay the target is H10 HA trimer of A/Jiangxi-Donghu/346/2013 (H10 JD13) (influenza A virus A/Jiangxi-Donghu/346/2013 (H10N8)). Description: negative stain EM, 3D reconstruction.

Regarding “H10 HA trimer of A/Jiangxi-Donghu/346/2013 (H10 JD13) (natural protein)”, the stoichiometry N was 3.
